Assay results published in the Human Domainome abundance scans (Beltran et al. 2025).

B1: Dystrobrevin alpha, residues 235 to 294; numbered along this chain, Q9Y4J8 (parent)
chain: ENVFHPVECSYCHSESMMGFRYRCQQCHNYQLCQDCFWRGHAGGSHSNQHQMKEYTSWKS

Variants of: B1
Test: abundance fitness (aPCA) (normalised: wild type 0, dead -1); higher = more abundant; growth selection in yeast, the domain comes from the species named
Settings: Homo sapiens

Abundance fitness, by site and new letter:
C33: A -0.495 | E -0.541 | D -0.894
N29: T -0.213 | V -0.281 | Y -0.204 | A -0.028 | Q 0.1 | D 0.052 | C 0.186 | G -0.058 | E -0.152 | F 0.007 | P -0.388 | W -0.183 | S -0.063 | M -0.044 | L -0.125 | R -0.171 | H -0.075 | K -0.156
Q26: W -0.498 | K -0.288 | G -0.277 | H -0.315 | P -0.545 | M -0.355 | T 0.012 | E -0.058 | V 0.273 | F -0.283 | C -0.301 | A 0.006 | D 0.341 | I 0.011 | N 0.022 | S -0.024 | R -0.232 | L -0.287
F20: D 0.106 | K 0.31 | M -0.004 | H 0.151 | T 0.15 | S 0.237 | N 0.217 | W 0.137 | G 0.163 | I 0.061 | A 0.224 | C 0.14 | Y 0.045 | V 0.104 | P 0.307 | Q 0.134
Y30: M -0.288 | F -0.183 | W -0.458 | G -0.553 | Q -0.559 | A -0.398 | T -0.426 | R -0.301 | P -0.638 | V -0.206 | H -0.53 | L -0.36 | S -0.478 | K -0.519 | E -0.378 | C -0.554 | D -0.508
R23: E 0.03 | G -0.158 | I -0.05 | C 0.176 | L 0.002 | T -0.008 | A -0.049 | Y -0.138 | V 0.074 | Q 0.034 | H 0.201 | D -0.022 | F -0.034 | P -0.509 | W -0.276 | M 0.006 | S 0.066 | K 0.147
L32: S -0.308 | Y -0.38 | W -0.751 | A -0.656 | M -0.793 | Q -0.455 | T 0.053 | E -0.395 | R -0.647 | C 0.038 | K -0.538 | G -0.511 | D -0.356 | V -0.102
Q31: L -0.153 | A -0.085 | R -0.318 | C -0.151 | V 0.098 | T 0.083 | Y -0.034 | F 0.119 | S -0.007 | P -0.536 | K -0.318 | N -0.202 | D -0.012 | I -0.053 | E 0.112 | W 0.11
E15: M 0.074 | S 0.03 | A -0.041 | F -0.133 | K -0.022 | P 0.1 | Q 0.079 | H 0.078 | D 0.195 | N 0.03 | I 0.018 | L -0.087 | W -0.104 | C -0.171 | G -0.105 | T 0.034 | Y -0.23 | R 0.054
C27: E -0.717 | L -0.998 | F -0.434 | M -0.814 | W -0.838 | V -0.85 | N -0.841 | A -0.727 | R -0.876 | P -0.578 | H -0.814 | Q -0.943 | K -0.745 | T -0.877 | D -0.667
M17: S 0.109 | N 0.046 | D 0.059 | H 0.116 | C -0.055 | A -0.037 | P -0.008 | Y -0.183 | I 0.045 | E 0.116 | F -0.002 | T 0.081 | R 0.007 | W -0.084
